Results: publication PMC2114938

Biological target: actin filaments (UniProt P68139)
Test: immunogold electron microscopy

percent of filaments with gold label at the barbed end (immune): 17.4%
Substance: Cap Z(36/32) (from UniProt P13127 1-286; P14315 1-277) (complex)
